This note sets out measurements from paper PMC5608758, “A brain-targeting lipidated peptide for neutralizing RNA-mediated toxicity in Polyglutamine Diseases” (Scientific Reports, 2017).

“Also recorded” adds a separate entry of the source. Non-standard residues stand in square brackets, D forms with d. Residues, ends and D or L forms follow the SMILES beside them. hArg = N=C(N)NCCCC[C@H](N)C(=O)O; Orn = NCCC[C@H](N)C(=O)O

The subject of data set [1] is P3V9. Briefly: ITC. Particulars: ITC (MicroCal iTC200): 20 mM MOPS pH 7.0, 300 mM NaCl, 25 C; 0.7 mM peptide titrated into 0.5 uM RNA; one-site model; errors are SEM, n>=3.
In data set [2] the test system is P3MT4. The data set is described as follows: ITC. As to conditions: ITC (MicroCal iTC200): 20 mM MOPS pH 7.0, 300 mM NaCl, 25 C; 0.7 mM peptide titrated into 0.5 uM RNA; one-site model; errors are SEM, n>=3.
Data set [3] relates to P3V3. Briefly: ITC. Particulars: ITC (MicroCal iTC200): 20 mM MOPS pH 7.0, 300 mM NaCl, 25 C; 0.7 mM peptide titrated into 0.5 uM RNA; one-site model; errors are SEM, n>=3.
Data set [4] concerns P3MT3. The data set is described as follows: ITC. As to conditions: ITC (MicroCal iTC200): 20 mM MOPS pH 7.0, 300 mM NaCl, 25 C; 0.7 mM peptide titrated into 0.5 uM RNA; one-site model; errors are SEM, n>=3.
Data set [5] concerns P3V6. The data set is described as follows: ITC. Particulars: ITC (MicroCal iTC200): 20 mM MOPS pH 7.0, 300 mM NaCl, 25 C; 0.7 mM peptide titrated into 0.5 uM RNA; one-site model; errors are SEM, n>=3.
The test system of data set [6] is P3V1. The data set is described as follows: ITC. Particulars: ITC (MicroCal iTC200): 20 mM MOPS pH 7.0, 300 mM NaCl, 25 C; 0.7 mM peptide titrated into 0.5 uM RNA; one-site model; errors are SEM, n>=3.
Data set [7] has as its system P3V4. The data set is described as follows: ITC. As to conditions: ITC (MicroCal iTC200): 20 mM MOPS pH 7.0, 300 mM NaCl, 25 C; 0.7 mM peptide titrated into 0.5 uM RNA; one-site model; errors are SEM, n>=3.
The test system of data set [8] is P3V7. Briefly: ITC. As to conditions: ITC (MicroCal iTC200): 20 mM MOPS pH 7.0, 300 mM NaCl, 25 C; 0.7 mM peptide titrated into 0.5 uM RNA; one-site model; errors are SEM, n>=3.
Data set [9] deals with P3V2. The data set is described as follows: ITC. Particulars: ITC (MicroCal iTC200): 20 mM MOPS pH 7.0, 300 mM NaCl, 25 C; 0.7 mM peptide titrated into 0.5 uM RNA; one-site model; errors are SEM, n>=3.
The test system of data set [10] is P3MT5. The data set is described as follows: ITC. As to conditions: ITC (MicroCal iTC200): 20 mM MOPS pH 7.0, 300 mM NaCl, 25 C; 0.7 mM peptide titrated into 0.5 uM RNA; one-site model; errors are SEM, n>=3.
The test system of data set [11] is P3 (P3WT). Briefly: ITC. Particulars: ITC (MicroCal iTC200): 20 mM MOPS pH 7.0, 300 mM NaCl, 25 C; 0.7 mM peptide titrated into 0.5 uM RNA; one-site model; errors are SEM, n>=3.
In data set [12] the test system is P3MT2. Briefly: ITC. As to conditions: ITC (MicroCal iTC200): 20 mM MOPS pH 7.0, 300 mM NaCl, 25 C; 0.7 mM peptide titrated into 0.5 uM RNA; one-site model; errors are SEM, n>=3.
For data set [13], the system named is P3MT1. Briefly: ITC. As to conditions: ITC (MicroCal iTC200): 20 mM MOPS pH 7.0, 300 mM NaCl, 25 C; 0.7 mM peptide titrated into 0.5 uM RNA; one-site model; errors are SEM, n>=3.
The subject of data set [14] is P3V8. Briefly: ITC. As to conditions: ITC (MicroCal iTC200): 20 mM MOPS pH 7.0, 300 mM NaCl, 25 C; 0.7 mM peptide titrated into 0.5 uM RNA; one-site model; errors are SEM, n>=3.
For data set [15], the system named is P3V5. The data set is described as follows: ITC. Particulars: ITC (MicroCal iTC200): 20 mM MOPS pH 7.0, 300 mM NaCl, 25 C; 0.7 mM peptide titrated into 0.5 uM RNA; one-site model; errors are SEM, n>=3.
The target of data set [16] is expanded MJD CAG78 RNA. The data set is described as follows: Isothermal titration calorimetry binding assay, expanded CAG RNA. Particulars: ITC, 25 °C, 20 mM MOPS pH 7.0, 300 mM NaCl; 0.7 mM peptide titrated into 0.5 µM MJD CAG78 RNA; one binding site model; mean ± S.E.M., at least 3 independent experiments. As for the experimental part: Experiments were carried out using a MicroCal iTC200 isothermal titration calorimeter (GE Healthcare) at 25 °C. Data were analyzed using the Origin® scientific plotting software version 7 (Microcal Software Inc.). All RNAs and peptides were dissolved in binding buffer (20 mM MOPS, pH 7.0; 300 mM NaCl) and 0.7 mM of peptide was titrated into 0.5 µM of RNA for each experiment. The concentration of RNA was estimated with appropriate extinction coefficients at 260 nm on a Nanodrop 2000 (Thermo Scientific). A reference power of 8 μcal/s was used with an initial 0.5 µl of injection of peptide followed by 2 µl for all subsequent titrations points with a 60 sec initial equilibrium delay and 150 sec pause between injections. The samples were stirred at a speed of 1000 rpm throughout the experiment. The thermal titration data were fitted to the ‘one binding site model’ to determine the dissociation constant (KD). Each experiment was repeated at least 3 times with consistent results obtained.

One may read the Kd as the equilibrium constant for the complex coming apart. High values mean weaker binding, low ones tighter binding. MJD CAG78 RNA (expanded): the dissociation constant Kd in data set [1] was 2.34 µM; in data set [2] it was 17.4 µM; in [3], 1.74 µM; in data set [4], 16.6 µM; in [5], 23.8 µM; in data set [6], 2 µM. For the same compound, the dissociation constant (Kd) in data set [7] was 4.44 µM; in data set [8], 3.67 µM; in data set [9], 2.21 µM; in data set [10], 51.3 µM; in data set [11] it was 8.37 µM; in data set [12], 101 µM. The results for the dissociation constant Kd in [13], in data set [14] and in data set [15] were 31.3 µM, 0.33 µM and 0.86 µM, respectively.
With MJD CAG27 RNA (unexpanded), the Kd in [14] was found to be 2.19 µM.
For `CC[C@H](C)[C@H](NC(=O)CNC(=O)[C@H](CCCN)NC(=O)[C@H](CO)NC(=O)[C@H](CCCCN)NC(=O)CNC(=O)[C@H](CC(=O)O)NC(C)=O)C(=O)N[C@@H](C)C(=O)N[C@@H](Cc1ccc(O)cc1)C(=O)N[C@H](C(=O)N[C@@H](CCC(=O)O)C(=O)N[C@@H](Cc1ccccc1)C(=O)N[C@@H](CCCCN)C(N)=O)[C@@H](C)CC` [P3V17] (Ac-DGKS[Orn]GIAYIEFK-NH2), the KD result in data set [16] is “No binding”.
As for “Ac-DGKSKGIAYIEFKGDGKSKGIAYIEFK-NH2 [P3V21]”, the KD entry in data set [16] is given as “No binding; also recorded: did not show any binding”.
Regarding `CC[C@H](C)[C@H](NC(=O)CNC(=O)[C@H](CCCCN)NC(=O)[C@H](CO)NC(=O)[C@H](CCCN)NC(=O)CNC(=O)[C@H](CC(=O)O)NC(C)=O)C(=O)N[C@@H](C)C(=O)N[C@@H](Cc1ccc(O)cc1)C(=O)N[C@H](C(=O)N[C@@H](CCC(=O)O)C(=O)N[C@@H](Cc1ccccc1)C(=O)N[C@@H](CCCCN)C(N)=O)[C@@H](C)CC` [P3V16] (Ac-DG[Orn]SKGIAYIEFK-NH2), the KD entry in [16] was “No binding”.
On the same count and under the same terms, the result for “Ac-DGKSKGIAYIEFKDGKSKGIAYIEFK-NH2 [P3V20]” reads “No binding; also recorded: did not show any binding”; that for `CC[C@H](C)[C@H](NC(=O)CNC(=O)[C@H](CCCCN)NC(=O)[C@H](CO)NC(=O)[C@H](CCCCNC(=N)N)NC(=O)CNC(=O)[C@H](CC(=O)O)NC(C)=O)C(=O)N[C@@H](C)C(=O)N[C@@H](Cc1ccc(O)cc1)C(=O)N[C@H](C(=O)N[C@@H](CCC(=O)O)C(=O)N[C@@H](Cc1ccccc1)C(=O)N[C@@H](CCCCN)C(N)=O)[C@@H](C)CC` [P3V14] (Ac-DG[hArg]SKGIAYIEFK-NH2), “No binding”.
In data set [16], Ac-DGRSRGIAYIEFK-NH2 [P3V9] yielded a Kd of 2.34 ± 0.49 µM.
Consider `CC[C@H](C)[C@H](NC(=O)CNC(=O)[C@H](CCCCNC(=N)N)NC(=O)[C@H](CO)NC(=O)[C@H](CCCCN)NC(=O)CNC(=O)[C@H](CC(=O)O)NC(C)=O)C(=O)N[C@@H](C)C(=O)N[C@@H](Cc1ccc(O)cc1)C(=O)N[C@H](C(=O)N[C@@H](CCC(=O)O)C(=O)N[C@@H](Cc1ccccc1)C(=O)N[C@@H](CCCCN)C(N)=O)[C@@H](C)CC` [P3V15] (Ac-DGKS[hArg]GIAYIEFK-NH2), for which, in [16], the KD result is reported as “No binding”.
For MJD CAA/G78 RNA (expanded, interrupted), the Kd in [14] is 2.94 µM.
